The record followed here is article doi:10.1101/613059.

The series addresses T1, Elav (Drosophila melanogaster (w1118), UniProt P16914 1-483).
T1 sequence: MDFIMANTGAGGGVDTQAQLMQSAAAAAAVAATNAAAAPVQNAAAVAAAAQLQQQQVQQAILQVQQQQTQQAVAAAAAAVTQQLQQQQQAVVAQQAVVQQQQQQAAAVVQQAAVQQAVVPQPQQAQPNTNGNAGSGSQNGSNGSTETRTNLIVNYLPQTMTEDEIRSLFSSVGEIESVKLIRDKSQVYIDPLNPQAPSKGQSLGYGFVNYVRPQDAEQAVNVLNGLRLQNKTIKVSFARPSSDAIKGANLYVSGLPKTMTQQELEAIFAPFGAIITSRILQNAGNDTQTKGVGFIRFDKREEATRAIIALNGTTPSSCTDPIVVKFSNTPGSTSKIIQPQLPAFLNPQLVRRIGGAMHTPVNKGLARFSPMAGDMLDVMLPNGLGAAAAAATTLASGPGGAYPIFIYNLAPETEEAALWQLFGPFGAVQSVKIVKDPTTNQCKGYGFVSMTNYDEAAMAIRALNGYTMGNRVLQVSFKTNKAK
Put plainly: EMSA. Background: In EMSA bound probe runs differently from free probe, usually more slowly.

With UGUGUAAGUGAGUACGGUCGCUGUGGUGUGAUGAUGGGUGUGG (ssRNA, U to G substitutions disrupting U-rich stretches) [Dscam1 EBS mutant probe], the binding result was “no binding”.
